From PMC4010901 (The Journal of Experimental Medicine, 2014)
Read-outs that look alike come from different tables or passages of the source.

How the values were obtained:
[1] = molecular target: T1, recombinant mRGMb-HIS (R&D Systems) (mouse, UniProt Q7TQ33 49-415); assay: ELISA
T1 sequence (looked up): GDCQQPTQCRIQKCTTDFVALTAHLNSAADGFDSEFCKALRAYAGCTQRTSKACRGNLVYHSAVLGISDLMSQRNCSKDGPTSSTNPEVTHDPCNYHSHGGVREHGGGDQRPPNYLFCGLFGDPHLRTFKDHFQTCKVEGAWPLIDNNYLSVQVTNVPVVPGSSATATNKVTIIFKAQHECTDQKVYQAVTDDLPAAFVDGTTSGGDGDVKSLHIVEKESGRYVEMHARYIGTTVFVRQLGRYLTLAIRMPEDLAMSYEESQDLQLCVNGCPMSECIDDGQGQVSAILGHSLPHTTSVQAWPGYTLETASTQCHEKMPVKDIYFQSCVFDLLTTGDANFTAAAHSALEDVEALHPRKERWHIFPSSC

[2] = molecular target: T2, recombinant hRGMb-HIS (R&D Systems) (human, UniProt Q6NW40 46-413); assay: ELISA
T2 sequence (looked up): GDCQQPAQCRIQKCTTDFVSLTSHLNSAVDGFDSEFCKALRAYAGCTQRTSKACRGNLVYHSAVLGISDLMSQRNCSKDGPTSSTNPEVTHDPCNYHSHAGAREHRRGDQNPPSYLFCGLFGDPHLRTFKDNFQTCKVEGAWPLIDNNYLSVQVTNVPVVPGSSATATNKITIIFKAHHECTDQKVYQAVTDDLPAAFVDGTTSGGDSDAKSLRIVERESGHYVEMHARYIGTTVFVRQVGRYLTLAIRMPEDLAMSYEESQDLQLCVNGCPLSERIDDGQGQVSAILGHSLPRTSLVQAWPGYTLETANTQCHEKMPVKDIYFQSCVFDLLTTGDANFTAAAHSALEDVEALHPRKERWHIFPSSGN

[3] = molecular target: T1, recombinant mRGMb-HIS (R&D Systems); assay: ELISA; remark: listed apart in the source
[4] = molecular target: T1, recombinant mRGMb-HIS (R&D Systems); assay: ELISA; remark: listed apart in the source
[5] = molecular target: T2, recombinant hRGMb-HIS (R&D Systems); assay: ELISA; remark: listed apart in the source
[6] = molecular target: T3, RGMb (R&D Systems) immobilised for Biacore ( (mouse and human RGMb-HIS …, UniProt Q7TQ33 49-415)); assay: SPR
T3 sequence (looked up): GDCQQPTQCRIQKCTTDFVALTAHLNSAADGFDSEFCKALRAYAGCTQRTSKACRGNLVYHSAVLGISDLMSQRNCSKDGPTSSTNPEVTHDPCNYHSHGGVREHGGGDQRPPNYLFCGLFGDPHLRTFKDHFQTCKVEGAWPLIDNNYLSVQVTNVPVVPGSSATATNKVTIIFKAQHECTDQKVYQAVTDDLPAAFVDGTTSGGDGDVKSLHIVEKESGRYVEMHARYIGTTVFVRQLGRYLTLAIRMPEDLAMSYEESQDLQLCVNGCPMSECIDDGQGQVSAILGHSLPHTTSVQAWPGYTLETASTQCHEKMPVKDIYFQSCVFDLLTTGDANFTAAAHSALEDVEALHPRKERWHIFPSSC

B1: hPD-L2-mIgG2a fusion protein (Fc fusion, human, UniProt Q9BQ51 20-220, looked up)
chain: LFTVTVPKELYIIEHGSNVTLECNFDTGSHVNLGAITASLQKVENDTSPHRERATLLEEQLPLGKASFHIPQVQVRDEGQYQCIIIYGVAWDYKYLTLKVKASYRKINTHILKVPETDEVELTCQATGYPLAEVSWPNVSVPANTSHSRTPEGLYQVTSVLRLKPPPGRNFSCVFWNTHVRELTLASIDLQSQMEPRTHPT
binding result [1]: binds
binding result [2]: binds

B2: recombinant mouse BMP-2 (Invitrogen) (ligand, UniProt P21274 281-394, looked up)
chain: QAKHKQRKRLKSSCKRHPLYVDFSDVGWNDWIVAPPGYHAFYCHGECPFPLADHLNSTNHAIVQTLVNSVNSKIPKACCVPTELSAISMLYLDENEKVVLKNYQDMVVEGCGCR
binding result [3]: binds

B3: recombinant mouse BMP-4 (R&D Systems) (ligand, UniProt P21275 293-408, looked up)
chain: SPKHHPQRSRKKNKNCRRHSLYVDFSDVGWNDWIVAPPGYQAFYCHGDCPFPLADHLNSTNHAIVQTLVNSVNSSIPKACCVPTELSAISMLYLDEYDKVVLKNYQEMVVEGCGCR
binding result [4]: binds

B4: mPD-L2-hIgG1/IgA fusion protein (Fc fusion, mouse, UniProt Q9WUL5 20-221, looked up)
chain: LFTVTAPKEVYTVDVGSSVSLECDFDRRECTELEGIRASLQKVENDTSLQSERATLLEEQLPLGKALFHIPSVQVRDSGQYRCLVICGAAWDYKYLTVKVKASYMRIDTRILEVPGTGEVQLTCQARGYPLAEVSWQNVSVPANTSHIRTPEGLYQVTSVLRLKPQPSRNFSCMFWNAHMKELTSAIIDPLSRMEPKVPRTW
binding result [5]: binds

B5: mPD-L2-hIgG (R&D Systems) (Fc fusion, mouse, UniProt Q9WUL5 20-221, looked up)
chain: LFTVTAPKEVYTVDVGSSVSLECDFDRRECTELEGIRASLQKVENDTSLQSERATLLEEQLPLGKALFHIPSVQVRDSGQYRCLVICGAAWDYKYLTVKVKASYMRIDTRILEVPGTGEVQLTCQARGYPLAEVSWQNVSVPANTSHIRTPEGLYQVTSVLRLKPQPSRNFSCMFWNAHMKELTSAIIDPLSRMEPKVPRTW
Kd [6]: 48.5 nM
